In PMC3273827:

Target: T1, La(4-325) (Homo sapiens, UniProt P05455 4-325)
T1 sequence: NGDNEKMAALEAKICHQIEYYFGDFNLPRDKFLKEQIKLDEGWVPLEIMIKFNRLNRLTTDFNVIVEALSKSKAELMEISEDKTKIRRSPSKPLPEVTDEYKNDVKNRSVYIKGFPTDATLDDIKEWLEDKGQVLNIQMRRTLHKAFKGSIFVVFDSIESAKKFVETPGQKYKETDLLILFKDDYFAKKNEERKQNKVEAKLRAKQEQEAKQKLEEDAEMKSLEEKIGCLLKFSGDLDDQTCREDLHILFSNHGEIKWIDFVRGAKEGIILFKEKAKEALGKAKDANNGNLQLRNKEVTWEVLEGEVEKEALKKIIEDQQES
Assay: ITC

## ACCUAACCACCACUACCACCUCCCACA (ssRNA) [27-mer ssRNA]
  binding result: no binding
